Experimental data: US20250179172A1

How the values were obtained:
[1] = target: human CD5, full length, on cells (Jurkat, endogenous; CHO-K1-human CD5, transfected) (human) (UniProt P06127); test: FACS on CHO-K1-human CD5 cells
[2] = target: murine CD5-His (Sino Biologicals, Cat. No. 50403-M08H) (murine) (UniProt P13379); test: ELISA on murine CD5-His, antibody '0.000' nM as printed
[3] = target: human CD5 (Arg25-Pro372)-His protein (Acro, Cat. No. CD5-H52H5) (human) (UniProt P06127); test: ELISA on hCD5-His, antibody 0.0001 nM
[4] = target: human CD5, full length, on cells (Jurkat, endogenous; CHO-K1-human CD5, transfected) (human) (UniProt P06127); test: FACS on CHO-K1-hCD5-2C6 cells
[5] = target: murine CD5-His (Sino Biologicals, Cat. No. 50403-M08H) (murine) (UniProt P13379); test: ELISA on murine CD5-His, antibody 0.01 nM
[6] = target: human CD5 (Arg25-Pro372)-His protein (Acro, Cat. No. CD5-H52H5) (human) (UniProt P06127); test: ELISA on hCD5-His, antibody 0.001 nM
[7] = target: murine CD5-His (Sino Biologicals, Cat. No. 50403-M08H) (murine) (UniProt P13379); test: ELISA on murine CD5-His, antibody 100.00 nM
[8] = target: human CD5 (Arg25-Pro372)-His protein (Acro, Cat. No. CD5-H52H5) (human) (UniProt P06127); test: ELISA on hCD5-His, antibody 0.01 nM
[9] = target: murine CD5-His (Sino Biologicals, Cat. No. 50403-M08H) (murine) (UniProt P13379); test: ELISA on murine CD5-His, antibody 10.00 nM
[10] = target: murine CD5-His (Sino Biologicals, Cat. No. 50403-M08H) (murine) (UniProt P13379); test: ELISA on murine CD5-His, antibody 0.001 nM
[11] = target: human CD5 (Arg25-Pro372)-His protein (Acro, Cat. No. CD5-H52H5) (human) (UniProt P06127); test: ELISA on hCD5-His, antibody 10 nM
[12] = target: human CD5, full length, on cells (Jurkat, endogenous; CHO-K1-human CD5, transfected) (human) (UniProt P06127); test: FACS on CHO-K1-hCD5-2E2 cells
[13] = target: monkey CD5, full length, on HEK293T cells (monkey); test: FACS on HEK293T-monkey CD5 cells
Sequence of monkey CD5, full length, on HEK293T cells (monkey) (chain, as listed by the source limits assumed): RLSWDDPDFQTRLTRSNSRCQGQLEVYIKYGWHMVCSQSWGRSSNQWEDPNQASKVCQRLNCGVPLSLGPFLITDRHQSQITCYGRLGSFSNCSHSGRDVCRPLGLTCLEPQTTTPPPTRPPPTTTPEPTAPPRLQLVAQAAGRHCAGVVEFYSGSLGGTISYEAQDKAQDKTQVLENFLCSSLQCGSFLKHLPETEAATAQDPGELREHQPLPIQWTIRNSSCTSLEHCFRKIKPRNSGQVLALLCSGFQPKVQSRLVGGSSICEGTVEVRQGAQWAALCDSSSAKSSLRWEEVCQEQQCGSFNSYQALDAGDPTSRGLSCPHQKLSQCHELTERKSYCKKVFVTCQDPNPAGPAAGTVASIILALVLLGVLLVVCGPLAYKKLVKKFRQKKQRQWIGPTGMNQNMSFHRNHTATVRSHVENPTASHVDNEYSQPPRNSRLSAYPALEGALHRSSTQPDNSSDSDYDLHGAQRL

[14] = target: human CD5, full length, on cells (Jurkat, endogenous; CHO-K1-human CD5, transfected) (human) (UniProt P06127); test: FACS on CHO-K1-hCD5-2F8 cells
[15] = target: human CD5 (Arg25-Pro372)-His protein (Acro, Cat. No. CD5-H52H5) (human) (UniProt P06127); test: ELISA on hCD5-His, antibody 100 nM
[16] = target: murine CD5-His (Sino Biologicals, Cat. No. 50403-M08H) (murine) (UniProt P13379); test: ELISA on murine CD5-His, antibody 0.10 nM
[17] = target: human CD5 (Arg25-Pro372)-His protein (Acro, Cat. No. CD5-H52H5) (human) (UniProt P06127); test: ELISA on hCD5-His, antibody 1 nM
[18] = target: murine CD5-His (Sino Biologicals, Cat. No. 50403-M08H) (murine) (UniProt P13379); test: ELISA on murine CD5-His, antibody 1.00 nM
[19] = target: human CD5 (Arg25-Pro372)-His protein (Acro, Cat. No. CD5-H52H5) (human) (UniProt P06127); test: ELISA on hCD5-His, antibody 0.1 nM
[20] = target: human CD5, full length, on cells (Jurkat, endogenous; CHO-K1-human CD5, transfected) (human) (UniProt P06127); test: FACS on Jurkat cells
[21] = target: human CD5, full length, on cells (Jurkat, endogenous; CHO-K1-human CD5, transfected) (human) (UniProt P06127); test: FACS on CHO-K1-hCD5-2B2 cells

Sequence of UniProt P13379 (P13379 24-371 limits assumed, stated change not applied): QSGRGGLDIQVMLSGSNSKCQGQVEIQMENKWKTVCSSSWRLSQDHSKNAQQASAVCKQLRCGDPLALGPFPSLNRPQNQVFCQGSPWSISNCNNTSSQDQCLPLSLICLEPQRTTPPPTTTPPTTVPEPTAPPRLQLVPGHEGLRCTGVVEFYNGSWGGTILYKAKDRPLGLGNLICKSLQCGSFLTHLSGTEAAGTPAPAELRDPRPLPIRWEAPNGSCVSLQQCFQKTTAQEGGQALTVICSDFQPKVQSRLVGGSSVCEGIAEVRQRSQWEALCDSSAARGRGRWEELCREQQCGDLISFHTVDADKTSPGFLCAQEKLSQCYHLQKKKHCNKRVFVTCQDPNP

- Max MFI [1]: 93 MFI
- OD450 [2]: 0.11 OD450
- OD450 [3]: 0.05 OD450
- Mean fluorescence intensity of cells [4]: 65.9 MFI
- OD450 [5]: 0.11 OD450
- OD450 [6]: 0.05 OD450
- OD450 [7]: 0.12 OD450
- OD450 [8]: 0.05 OD450
- OD450 [9]: 0.12 OD450
- OD450 [10]: 0.11 OD450
- OD450 [11]: 0.05 OD450
- Mean fluorescence intensity of cells [12]: 65.9 MFI
- Max MFI [13]: 79 MFI
- Mean fluorescence intensity of cells [14]: 65.9 MFI
- OD450 [15]: 0.06 OD450
- OD450 [16]: 0.11 OD450
- OD450 [17]: 0.05 OD450
- OD450 [18]: 0.11 OD450
- OD450 [19]: 0.05 OD450
- Max MFI [20]: 62 MFI
- Mean fluorescence intensity of cells [20]: 97 MFI
- Mean fluorescence intensity of cells [21]: 65.9 MFI
Substance: Anti-HEL-hIgG1 (antibody against hen egg lysozyme, Biointron Cat. No. B117901)
